{"source": "paper PMC9751120", "about": "(2022)", "assay_in_all_cases": "FP", "key": {"[1]": {"biological_target": "T1, purified full-length ΔNp63α (human, UniProt Q9H3D4-2 1-586)", "T1 chain": "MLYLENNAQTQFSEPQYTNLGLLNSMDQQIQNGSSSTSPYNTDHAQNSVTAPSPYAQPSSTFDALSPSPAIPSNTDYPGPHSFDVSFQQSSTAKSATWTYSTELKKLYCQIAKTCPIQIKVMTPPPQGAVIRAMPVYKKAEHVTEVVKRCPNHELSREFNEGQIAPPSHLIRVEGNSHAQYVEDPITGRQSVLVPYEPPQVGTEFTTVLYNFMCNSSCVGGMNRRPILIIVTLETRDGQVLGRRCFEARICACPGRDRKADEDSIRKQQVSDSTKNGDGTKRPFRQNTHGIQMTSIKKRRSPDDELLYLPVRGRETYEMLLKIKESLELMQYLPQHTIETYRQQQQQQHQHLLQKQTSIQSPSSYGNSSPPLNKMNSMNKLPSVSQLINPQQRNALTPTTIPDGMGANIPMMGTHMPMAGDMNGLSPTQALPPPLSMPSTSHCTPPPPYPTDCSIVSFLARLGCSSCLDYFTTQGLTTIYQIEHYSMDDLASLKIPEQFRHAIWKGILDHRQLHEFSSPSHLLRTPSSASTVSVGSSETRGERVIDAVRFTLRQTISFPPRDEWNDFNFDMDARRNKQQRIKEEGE"}, "[2]": {"biological_target": "T2, purified full-length TAp63α (human)", "T2 chain": "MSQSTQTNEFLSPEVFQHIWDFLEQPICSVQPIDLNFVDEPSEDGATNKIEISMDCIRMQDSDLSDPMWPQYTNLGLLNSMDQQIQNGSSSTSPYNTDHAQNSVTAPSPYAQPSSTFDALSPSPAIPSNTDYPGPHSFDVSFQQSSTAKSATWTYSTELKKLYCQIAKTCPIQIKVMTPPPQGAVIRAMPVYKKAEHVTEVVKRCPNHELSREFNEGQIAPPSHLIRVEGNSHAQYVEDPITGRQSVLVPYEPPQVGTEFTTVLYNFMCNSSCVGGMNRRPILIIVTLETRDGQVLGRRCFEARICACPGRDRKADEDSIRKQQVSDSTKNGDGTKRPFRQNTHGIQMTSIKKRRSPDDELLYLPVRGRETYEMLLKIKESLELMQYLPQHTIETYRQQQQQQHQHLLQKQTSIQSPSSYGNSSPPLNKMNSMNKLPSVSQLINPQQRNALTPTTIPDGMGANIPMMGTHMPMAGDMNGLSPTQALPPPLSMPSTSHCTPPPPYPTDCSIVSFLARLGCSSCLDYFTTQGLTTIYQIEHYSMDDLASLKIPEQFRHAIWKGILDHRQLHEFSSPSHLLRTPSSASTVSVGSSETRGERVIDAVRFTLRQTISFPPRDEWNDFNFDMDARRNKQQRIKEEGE"}, "[3]": {"biological_target": "T1, purified full-length ΔNp63α"}, "[4]": {"biological_target": "T2, purified full-length TAp63α"}, "[5]": {"biological_target": "T1, purified full-length ΔNp63α"}, "[6]": {"biological_target": "T2, purified full-length TAp63α"}}, "note": "Read-outs that look alike come from different tables or passages of the source.", "data": [{"binder": "DARPin A5, Alexa 488 labeled (designed binder, Alexa Fluor 488 C5 maleimide on the introduced C-terminal cysteine) GSDLGKKLLEAARAGQDDEVRILMANGADVNAQDQYGWTPLHLAAARGHLEIVEVLLKTGADVNAVDKHGNTPLPLAASVGHLEIVEVLLKAGADVNAQDQFGRTPLHLAAMWGHLEIVEVLLKHGADVNAQDKFGKTAFDISIDNGNEDIVEVLQKAAGGC", "values": [{"measurement": "Kd", "setting": "[1]", "result": 67.9, "unit": "nM"}, {"measurement": "Kd", "setting": "[2]", "result": 296, "unit": "nM"}]}, {"binder": "DARPin C14, Alexa 488 labeled (designed binder, Alexa Fluor 488 C5 maleimide on the introduced C-terminal cysteine) GSDLGKKLLEAAQIGQLDEVRILMANGADVNASDTDGLTPLHLAAASGHLEIVEVLLKTGADVNATDKWGDTPLHLAASQGHLEIVEVLLKAGADVNATDFTGNTPLHLAAYIGHLEIVEVLLKHGADVNAQDKFGKTPFDLAIDNGNEDIAEVLQKAAGGC", "values": [{"measurement": "Kd", "setting": "[3]", "result": 202, "unit": "nM"}, {"measurement": "Kd", "setting": "[4]", "result": 734, "unit": "nM"}]}, {"binder": "DARPin 8F1, Alexa 488 labeled (designed binder, Alexa Fluor 488 C5 maleimide on the introduced C-terminal cysteine) GSDLGKKLLEAARAGQDDEVRILMANGADVNAADWLGYTPLHLAAWYGHLEIVEVLLKTGADVNARDAYGITPLHLAAYYGHLEIVEVLLKHGADVNAQDKFGKTPFDLAIDNGNEDIAEVLQKAAGGC", "values": [{"measurement": "Kd", "setting": "[5]", "result": 95.6, "unit": "nM"}, {"measurement": "Kd", "setting": "[6]", "result": 6160, "unit": "nM"}]}]}
